Results from patent US20180155413A1 (AstraZeneca / MedImmune, published 2018).
Where two headings read alike, the source gives them in different places.

Tests used:
Experiment in all cases: cell-based or functional assay
[1] = target: HA of A/Solomon Island/3/2006 (H1N1) (influenza A virus)
[2] = target: HA of ca A/South Dakota/6/2007 (H1N1) (influenza A virus)
[3] = target: HA of ca A/Sydney/5/97 (H3N2) (influenza A virus)
[4] = target: HA of A/Victoria/361/2011 (H3N2) (influenza A virus)
[5] = target: HA of A/Beijing/262/95 (H1N1) (influenza A virus)
[6] = target: HA of ca A/Wuhan/359/95 (H3N2) (influenza A virus)
[7] = target: HA of ca A/New Caledonia/20/99 (H1N1) (influenza A virus)
[8] = target: HA of A/Brisbane/10/2010 (H1N1) (influenza A virus)
[9] = target: HA of A/Victoria/3/75 (H3N2) (influenza A virus)
[10] = target: HA of ca A/mallard/Alberta/89/85 (H6N2) (influenza A virus)
[11] = target: HA of A/New Hampshire/04/2010 (H1N1) (influenza A virus)
[12] = target: HA of A/California/7/2004 (H3N2) (influenza A virus)
[13] = target: HA of A/Washington/24/2012 (H1N1) (influenza A virus)
[14] = target: HA of A/Berlin/93/2011 (H3N2) (influenza A virus)
[15] = target: HA of A/New Caledonia/71/2014 (H3N2) (influenza A virus)
[16] = target: HA of A/AmericanSomoa/4786/2013 (H3N2) (influenza A virus)
[17] = target: HA of A/Switzerland/9715293/2013 (H3N2) (influenza A virus)
[18] = target: HA of A/Hong Kong/8/68 (H3N2) (influenza A virus)
[19] = target: HA of ca A/Brit. Columbia/CN-6/04 (H7N3-LP) (influenza A virus)
[20] = target: HA of ca A/Japan/57 (H2N2) (influenza A virus)
[21] = target: HA of ca A/Perth/16/2009 (H3N2) (influenza A virus)
[22] = target: HA of A/California/07/2009 (H1N1) (influenza A virus)
[23] = target: HA of ca A/Panama/2007/99 (H3N2) (influenza A virus)
[24] = target: HA of A/Texas/50/2012 (H3N2) (influenza A virus)
[25] = target: HA of A/Fort Monmouth/1/47 (H1N1) (influenza A virus)
[26] = target: HA of A/Wisconsin/67/2005 (H3N2) (influenza A virus)
[27] = target: HA of A/Palau/6759/2014 (H3N2) (influenza A virus)
[28] = target: HA of A/Shenzhen/227/95 (H1N1) (influenza A virus)
[29] = target: HA of A/Bolivia/559/2013 (H1N1) (influenza A virus)
[30] = target: T1, HA of A/Wilson Smith N/33 (H1N1) (influenza A virus, UniProt P03454 18-565)
T1 sequence (P03454 18-565 limits assumed): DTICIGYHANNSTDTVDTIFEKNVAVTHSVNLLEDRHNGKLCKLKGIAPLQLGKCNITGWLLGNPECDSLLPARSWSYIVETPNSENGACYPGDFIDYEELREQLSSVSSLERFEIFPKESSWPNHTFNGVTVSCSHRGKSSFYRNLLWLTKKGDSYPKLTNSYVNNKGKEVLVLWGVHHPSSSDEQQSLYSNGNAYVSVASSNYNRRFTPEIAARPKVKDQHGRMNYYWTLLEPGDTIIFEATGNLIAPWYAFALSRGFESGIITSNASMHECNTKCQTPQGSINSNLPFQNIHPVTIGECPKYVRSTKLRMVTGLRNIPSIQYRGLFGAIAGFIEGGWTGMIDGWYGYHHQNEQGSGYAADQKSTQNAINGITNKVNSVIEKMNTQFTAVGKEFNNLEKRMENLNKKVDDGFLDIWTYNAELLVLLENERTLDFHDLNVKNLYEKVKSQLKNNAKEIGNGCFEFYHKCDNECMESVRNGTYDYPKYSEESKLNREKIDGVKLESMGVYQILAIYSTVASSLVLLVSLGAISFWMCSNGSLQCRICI

[31] = target: HA of A/Shan dong/9/93 (H3N2) (influenza A virus)
[32] = target: HA of A/Puerto Rico/8/34 (H1N1) (influenza A virus, UniProt P03452 18-565)
Chain of HA of A/Puerto Rico/8/34 (H1N1) (P03452 18-565 limits assumed): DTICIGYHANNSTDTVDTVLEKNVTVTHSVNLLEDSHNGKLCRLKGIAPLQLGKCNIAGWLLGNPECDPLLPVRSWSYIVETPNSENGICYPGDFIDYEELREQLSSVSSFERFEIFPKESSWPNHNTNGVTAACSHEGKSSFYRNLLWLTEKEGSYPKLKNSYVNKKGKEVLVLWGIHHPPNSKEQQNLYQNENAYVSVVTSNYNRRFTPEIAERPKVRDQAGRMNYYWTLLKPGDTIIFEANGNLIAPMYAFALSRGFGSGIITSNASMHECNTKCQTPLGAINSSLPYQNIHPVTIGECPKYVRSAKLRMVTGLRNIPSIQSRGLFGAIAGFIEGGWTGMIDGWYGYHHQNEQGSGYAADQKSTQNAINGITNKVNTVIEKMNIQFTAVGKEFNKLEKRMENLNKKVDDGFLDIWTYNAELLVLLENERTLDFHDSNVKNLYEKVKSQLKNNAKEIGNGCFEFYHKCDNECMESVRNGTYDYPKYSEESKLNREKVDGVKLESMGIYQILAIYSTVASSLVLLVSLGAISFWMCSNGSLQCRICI

[33] = target: HA of A/Minnesota/11/2010 (H3N2v) (influenza A virus)
[34] = target: HA of B/Yamanashi/166/98 (yamagata) (influenza B virus)
[35] = target: HA of B/Ohio/1/2005 (victoria) (influenza B virus)
[36] = target: HA of ca B/Beijing/243/97 (victoria) (influenza B virus)
[37] = target: HA of A/Hong Kong/8/68 (H3N2) (influenza A virus); remark: listed apart in the source
[38] = target: HA of B/Hong Kong/330/2001 (victoria) (influenza B virus)
[39] = target: HA of B/Malaysia/2506/2004 (victoria) (influenza B virus)
[40] = target: T1, HA of A/Wilson Smith N/33 (H1N1); remark: listed apart in the source
[41] = target: HA of A/Shan dong/9/93 (H3N2) (influenza A virus); remark: listed apart in the source

B1: GL20/39 BiS4 100/44 (bispecific antibody)
light: DIQMTQSPSSLSASVGDRVTITCRTSQSLSSYTHWYQQKPGKAPKLLIYAASSRGSGVPSRFSGSGSGTDFTLTISSLQPEDFATYYCQQSRTFGQGTKVEIKRTVAAPSVFIFPPSDEQLKSGTASVVCLLNNFYPREAKVQWKVDNALQSGNSQESVTEQDSKDSTYSLSSTLTLSKADYEKHKVYACEVTHQGLSSPVTKSFNRGEC
heavy: not shown
- Neutralization (IC50) [1]: 4.4 nM
- Neutralization (IC50) [2]: 6.8 nM
- Neutralization (IC50) [3]: 22.6 nM
- Neutralization (IC50) [4]: 5.2 nM
- Neutralization (IC50) [5]: 10.6 nM
- Neutralization (IC50) [6]: 16.7 nM
- Neutralization (IC50) [7]: 6.2 nM
- Neutralization (IC50) [8]: 9.8 nM
- Neutralization (IC50) [9]: 5.2 nM
- Neutralization (IC50) [10]: 6.5 nM
- Neutralization (IC50) [11]: 0.4 nM
- Neutralization (IC50) [12]: 10.5 nM
- Neutralization (IC50) [13]: 2.1 nM
- Neutralization (IC50) [14]: 1.1 nM
- Neutralization (IC50) [15]: 0.8 nM
- Neutralization (IC50) [16]: 0.8 nM
- Neutralization (IC50) [17]: 0.9 nM
- Neutralization (IC50) [18]: 3.3 nM
- Neutralization (IC50) [19]: 18.3 nM
- Neutralization (IC50) [20]: 5.3 nM
- Neutralization (IC50) [21]: 4 nM
- Neutralization (IC50) [22]: 10.9 nM
- Neutralization (IC50) [23]: 28.5 nM
- Neutralization (IC50) [24]: 3.1 nM
- Neutralization (IC50) [25]: 5.2 nM
- Neutralization (IC50) [26]: 10.3 nM
- Neutralization (IC50) [27]: 4.6 nM
- Neutralization (IC50) [28]: 7.9 nM
- Neutralization (IC50) [29]: 0.9 nM
- Neutralization (IC50) [30]: 9.5 nM
- Neutralization (IC50) [31]: 18.3 nM
- Neutralization (IC50) [32]: 18.6 nM
- Neutralization (IC50) [33]: 17.1 nM
- Neutralization (IC50) [34]: 1.2 nM
- Neutralization (IC50) [35]: 16.5 nM
- Neutralization (IC50) [36]: 44.3 nM
- Neutralization (IC50) [37]: 6 nM
- Neutralization (IC50) [38]: 75.8 nM
- Neutralization (IC50) [39]: 25.8 nM
- Neutralization (IC50) [40]: 16.3 nM
- Neutralization (IC50) [41]: 30.3 nM

B2: GL20 IgG (antibody, V domains shown)
VH: QVQLQQSGPGLVKPSQTLSLTCAISGDSVSSYNAVWNWIRQSPSRGLEWLGRTYYRSGWYNDYAESVKSRITINPDTSKNQFSLQLNSVTPEDTAVYYCARSGHITVFGVNVDAFDMWGQGTMVTVSS
VL: DIQMTQSPSSLSASVGDRVTITCRTSQSLSSYTHWYQQKPGKAPKLLIYAASSRGSGVPSRFSGSGSGTDFTLTISSLQPEDFATYYCQQSRTFGQGTKVEIK
- Neutralization (IC50) [1]: 4.3 nM
- Neutralization (IC50) [2]: 10.8 nM
- Neutralization (IC50) [3]: 32.1 nM
- Neutralization (IC50) [4]: 5.7 nM
- Neutralization (IC50) [5]: 10.8 nM
- Neutralization (IC50) [6]: 16.3 nM
- Neutralization (IC50) [7]: 4.2 nM
- Neutralization (IC50) [8]: 10.5 nM
- Neutralization (IC50) [9]: 3 nM
- Neutralization (IC50) [10]: 4.8 nM
- Neutralization (IC50) [11]: 0.4 nM
- Neutralization (IC50) [12]: 14.2 nM
- Neutralization (IC50) [13]: 1.4 nM
- Neutralization (IC50) [14]: 1.1 nM
- Neutralization (IC50) [15]: 1 nM
- Neutralization (IC50) [16]: 0.9 nM
- Neutralization (IC50) [17]: 0.3 nM
- Neutralization (IC50) [18]: 3 nM
- Neutralization (IC50) [19]: 7.4 nM
- Neutralization (IC50) [20]: 5 nM
- Neutralization (IC50) [21]: 4.2 nM
- Neutralization (IC50) [22]: 10.2 nM
- Neutralization (IC50) [23]: 44.2 nM
- Neutralization (IC50) [24]: 4.8 nM
- Neutralization (IC50) [25]: 6.1 nM
- Neutralization (IC50) [26]: 10.7 nM
- Neutralization (IC50) [27]: 6.8 nM
- Neutralization (IC50) [28]: 9.3 nM
- Neutralization (IC50) [29]: 0.9 nM
- Neutralization (IC50) [30]: 7.6 nM
- Neutralization (IC50) [31]: 21.8 nM
- Neutralization (IC50) [32]: 10 nM
- Neutralization (IC50) [33]: 11.1 nM
- Neutralization (IC50) [34]: > 1000 nM
- Neutralization (IC50) [35]: > 1000 nM
- Neutralization (IC50) [36]: > 1000 nM
- Neutralization (IC50) [37]: 7 nM
- Neutralization (IC50) [38]: > 1000 nM
- Neutralization (IC50) [39]: > 1000 nM
- Neutralization (IC50) [40]: 13 nM
- Neutralization (IC50) [41]: 19.2 nM
